Source: article PMC8610301 (Current Research in Microbial Sciences, 2021)
Where two headings read alike, the source gives them in different places.

What was measured:
[1] = target: the molecule itself; test: immunoblot after SDS-PAGE
[2] = target: the molecule itself; test: immunoblot after SDS-PAGE; remark: listed apart in the source

B1: recombinant Cas2 of Leptospira interrogans (LinCas2) (enzyme, UniProt Q8F1F4 1-94, looked up)
chain: MKHWRLVSYDIREPKRLRRVAKIMEGFGERIQYSVFRIYSTDKELEKLRWKLAKVTEEEDNIFYLTLCTKCASGAHTQEKKSAWPEAPKTLKIL
- stoichiometry N [1]: 2

B2: native LinCas2 in the lysate of L. interrogans serovar Copenhageni (natural protein, UniProt Q8F1F4 1-94, looked up)
chain: B1 chain
- stoichiometry N [2]: 2
